# Laboratory results from patent US9789203B2, “cKIT antibody drug conjugates” (Novartis AG, priority 2013, dated 2017).
# T1: mouse cKIT ECD (Mus musculus, UniProt P05532)
# T1 construct: 3.125-50 nM of cKIT receptor extracellular domains (ECD) were diluted in a 2-fold series
# T1 sequence (P05532 25-527 limits assumed): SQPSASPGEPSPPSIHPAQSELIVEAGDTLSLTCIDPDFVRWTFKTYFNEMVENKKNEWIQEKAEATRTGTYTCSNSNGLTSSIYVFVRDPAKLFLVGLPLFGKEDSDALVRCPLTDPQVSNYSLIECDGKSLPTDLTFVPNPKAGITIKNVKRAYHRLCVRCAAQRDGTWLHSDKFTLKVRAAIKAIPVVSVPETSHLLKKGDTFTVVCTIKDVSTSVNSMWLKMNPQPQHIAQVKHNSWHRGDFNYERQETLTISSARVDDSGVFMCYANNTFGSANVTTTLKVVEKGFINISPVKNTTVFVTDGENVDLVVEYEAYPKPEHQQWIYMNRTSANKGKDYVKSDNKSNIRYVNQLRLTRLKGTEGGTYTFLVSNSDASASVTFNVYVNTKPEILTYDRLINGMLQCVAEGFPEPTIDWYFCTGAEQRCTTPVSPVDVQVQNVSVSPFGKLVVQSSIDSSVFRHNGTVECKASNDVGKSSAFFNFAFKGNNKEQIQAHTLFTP
# B1: NEG026: anti-cKIT antibody of Table 1, VH SEQ ID NO 46, VL SEQ ID NO 55 (antibody, V domains shown)
# VH: EVQLVESGGGLVQPGGSLRLSCAASGFTFSDYYMAWVRQAPGKGLEWVANINQNTGSTYYVDSVQGRFTISRDNAKNSLYLQMNSLRAEDTAVYYCARGDYYGTTYWYFDVWGQGTTVTVSS
# VL: EIVMTQSPATLSLSPGERATLSCRASQDISNYLNWYQQKPGQAPRLLIYYTSRLQSGIPARFSGSGSGTDYTLTISSLEPEDFAVYYCQQGKKLWSFGGGTKVEIK
# B2: NEG027: anti-cKIT antibody of Table 1, VH SEQ ID NO 64, VL SEQ ID NO 73 (antibody, V domains shown)
# VH: EVQLVESGGGLVQPGGSLRLSCAASGFTFSDYYMAWVRQAPGKGLEWVASINQNTGSTYYLDSVRGRFTISRDNAKNSLYLQMNSLRAEDTAVYYCARGDYYGTTYWYFDVWGQGTTVTVSS
# VL: EIVMTQSPATLSLSPGERATLSCRASQDISNYLNWYQQKPGQAPRLLIYYTSRLQSGIPARFSGSGSGTDYTLTISSLEPEDFAVYYCQQGKKLWSFGGGTKVEIK
# B3: NEG087: anti-cKIT antibody of Table 1, VH SEQ ID NO 118, VL SEQ ID NO 127 (antibody, V domains shown)
# VH: EVQLVESGGGLVQPGGSLRLSCAASGFTFSDYYMAWVRQAPGKGLEWVASINQNTGSTYYLDSVRGRFTISRDNAKNSLYLQMNSLRAEDTAVYYCARGDYYGTTYWYFDVWGQGTTVTVSS
# VL: DIQMTQSPSSLSASVGDRVTITCRASQSISSYLNWYQQKPGKAPKLLIYYTSRLQSGVPSRFSGSGSGTDFTLTISSLQPEDFATYYCQQGRRLWSFGGGTKVEIK
# B4: NEG086: anti-cKIT antibody of Table 1, VH SEQ ID NO 100, VL SEQ ID NO 109 (antibody, V domains shown)
# VH: EVQLVESGGGLVQPGGSLRLSCAASGFTFSDYYMAWVRQAPGKGLEWVANINQIAGSTYYVDSVQGRFTISRDNAKNSLYLQMNSLRAEDTAVYYCARGDYYGTTYWYFDVWGQGTTVTVSS
# VL: DIQMTQSPSSLSASVGDRVTITCRASQSISSYLNWYQQKPGKAPKLLIYYTSRLQSGVPSRFSGSGSGTDFTLTISSLQPEDFATYYCQQGRRLWSFGGGTKVEIK
# B5: 9P3: hybridoma derived anti-cKIT antibody, VH SEQ ID NO.9, VL SEQ ID NO.18 (antibody, V domains shown)
# VH: EVRLVESEGGLVQPRSSMKLSCTASGFTFSDYYMAWVRQVPEKGLEWVANINYDGSSTYYLDSLKSRFIISRDNAKNILYLQMSSLKSEDTATYYCARGDYYGTTYWYFDVWGTGTTVTVSS
# VL: DIQMTQTTSSLSASLGDRVTISCRASQDISNYLNWYQQKPDGTVKLLIYYTSRLQSGVPSRFSGSGSGTDYSLTISNLEQEDIATYFCQQGKKLWSFGGGTKLEIKR
# Key:
# [1] = test system: HAMLX5343 systemic primary AML xenograft; settings: mouse, in vivo, ip
# Experimental: (§4) Female NSG mice were implanted systemically (via tail vein injection) with 5×10^6 cells in phosphate buffered saline.
# (§5) Leukemic burden was measured by flow cytometry. Weekly, blood was collected from all study animals via the tail. […] The stained cells were analyzed on a FACS Canto flow cytometer (BD Biosciences) (FIG. 52A). Body weights were measured twice weekly (FIG. 52B).
# [2] = test system: HAMLX5343 systemic primary AML xenograft; test: In vivo efficacy, HAMLX5343 systemic primary AML xenograft
# Experimental: as §4, §5
# GIST cell lines = settings: Edris et al. 2013; cited from earlier work
# Uke-1 cells = test: ADCC activity in vitro (Calcein release, NK3.3 effector cells); assay type: cell-based, human; settings: Uke-1 target cells, NK3.3 effector cells 20 to 1, FIG. 17
# Experimental: In brief, Uke-1 cells were stained with Calcein acetoxy-methyl ester (Calcein-AM; Sigma-Aldrich catalog #17783-5MG, St. Louis, Mo.), washed twice, pipetted into a 96-well microtiterplate (96 well, U-bottomed, clear plastic; Corning Costar, catalog #650 160, Tewksbury, Mass.) at a concentration of 5000 cells per well and pre-incubated for 10 min with a serial dilution of the above mentioned antibodies and proteins (from 50,000 to 0.003 μg per ml) before adding the effector NK3.3 cells for 1 hour in an effector to target ratio of 20 to 1. In order to calculate the antibody specific lysis of the target cells, a parallel incubation of target cells only without antibody or effector cells served as a baseline and negative control, whereas the positive control or maximal lysis or hundred percent specific lysis was determined by lysis of target cells only with a 1% Triton-X 100 solution. […] Following a co-incubation of target and effector cells, the microtiterplate was centrifuged and an aliquot of the supernatant fluid was transferred to another microtiterplate (96 well, flat-bottomed, black with clear bottom; (Corning Costar, catalog #3904, Tewksbury, Mass.) and the concentration of free Calcein in solution was determined with a fluorescence counter (Victor 3® multilabel counter, Perkin Elmer, Waltham, Mass.).
# mouse cKIT ECD = biological target: T1, mouse cKIT ECD; test: SPR (Biacore 2000) affinity measurement; assay type: binding; settings: 25° C., antibody captured, ECD in solution
# Experimental: (§1) Affinity of the antibodies to cKIT species orthologues and also to cKIT was determined using SPR technology using a Biacore® 2000 instrument (GE Healthcare, Pittsburgh, Pa.) and with CM5 sensor chips.
# (§2) Briefly, HBS-P (0.01 M HEPES, pH 7.4, 0.15 M NaCl, 0.005% Surfactant P20) supplemented with 2% Odyssey® blocking buffer (Li-Cor Biosciences, Lincoln, Nebr.) was used as the running buffer for all the experiments. The immobilization level and analyte interactions were measured by response unit (RU). Pilot experiments were performed to test and confirm the feasibility of the immobilization of the anti-human Fc antibody (Catalog number BR100839, GE Healthcare, Pittsburgh, Pa.) and the capture of the test antibodies.
# (§3) For kinetic measurements, the experiments were performed in which the antibodies were captured to the sensor chip surface via the immobilized anti-human Fc antibody and the ability of the cKIT proteins to bind in free solution was determined Briefly, 25 μg/ml of anti-human Fc antibody at pH 5 was immobilized on a CM5 sensor chip through amine coupling at flow rate of 5 μl/minute on all two flow cells to reach 10,500 RUs. 0.1-1 μg/ml of test antibodies were then injected at 10 μl/min for 1 minute. Captured levels of the antibodies were generally kept below 200 RUs. Subsequently, 3.125-50 nM of cKIT receptor extracellular domains (ECD) were diluted in a 2-fold series and injected at a flow rate of 40 μl/min for 3 min over both reference and test flow cells. Table of tested ECDs is listed below. Dissociation of the binding was followed for 10 min. After each injection cycle, the chip surface was regenerated with 3 M MgCl2 at 10 μl/min for 30 s.
# rat cKIT ECD = test: SPR (Biacore 2000) affinity measurement; assay type: binding; settings: 25° C., antibody captured, ECD in solution
# rat cKIT ECD, sequence (as listed by the source): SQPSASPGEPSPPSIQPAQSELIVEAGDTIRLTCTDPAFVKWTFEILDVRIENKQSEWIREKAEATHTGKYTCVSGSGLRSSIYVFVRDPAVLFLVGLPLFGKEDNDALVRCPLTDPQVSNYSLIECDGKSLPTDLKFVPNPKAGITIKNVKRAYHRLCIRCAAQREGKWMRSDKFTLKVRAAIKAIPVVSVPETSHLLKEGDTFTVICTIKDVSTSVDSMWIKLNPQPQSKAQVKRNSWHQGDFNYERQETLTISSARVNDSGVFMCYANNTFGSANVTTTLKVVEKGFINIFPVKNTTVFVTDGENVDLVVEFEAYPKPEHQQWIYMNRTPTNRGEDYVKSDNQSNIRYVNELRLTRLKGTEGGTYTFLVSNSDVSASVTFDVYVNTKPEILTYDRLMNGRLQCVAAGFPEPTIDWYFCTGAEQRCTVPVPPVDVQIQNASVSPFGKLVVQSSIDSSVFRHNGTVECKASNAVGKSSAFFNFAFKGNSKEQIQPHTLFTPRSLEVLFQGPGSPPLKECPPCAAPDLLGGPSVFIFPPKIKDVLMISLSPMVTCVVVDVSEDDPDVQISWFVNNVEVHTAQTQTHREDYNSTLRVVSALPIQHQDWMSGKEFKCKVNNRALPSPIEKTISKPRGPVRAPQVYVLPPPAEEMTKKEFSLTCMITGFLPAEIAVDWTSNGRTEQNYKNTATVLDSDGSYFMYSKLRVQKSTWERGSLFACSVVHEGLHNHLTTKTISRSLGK
# Experimental: as §1, §2, §3
# SCF binding to cKIT = SCF binding to cKIT (Homo sapiens, UniProt P10721); test: Competition assays using ELISA and FACS, SCF binding to cKIT
# SCF binding to cKIT, sequence (P10721 26-976): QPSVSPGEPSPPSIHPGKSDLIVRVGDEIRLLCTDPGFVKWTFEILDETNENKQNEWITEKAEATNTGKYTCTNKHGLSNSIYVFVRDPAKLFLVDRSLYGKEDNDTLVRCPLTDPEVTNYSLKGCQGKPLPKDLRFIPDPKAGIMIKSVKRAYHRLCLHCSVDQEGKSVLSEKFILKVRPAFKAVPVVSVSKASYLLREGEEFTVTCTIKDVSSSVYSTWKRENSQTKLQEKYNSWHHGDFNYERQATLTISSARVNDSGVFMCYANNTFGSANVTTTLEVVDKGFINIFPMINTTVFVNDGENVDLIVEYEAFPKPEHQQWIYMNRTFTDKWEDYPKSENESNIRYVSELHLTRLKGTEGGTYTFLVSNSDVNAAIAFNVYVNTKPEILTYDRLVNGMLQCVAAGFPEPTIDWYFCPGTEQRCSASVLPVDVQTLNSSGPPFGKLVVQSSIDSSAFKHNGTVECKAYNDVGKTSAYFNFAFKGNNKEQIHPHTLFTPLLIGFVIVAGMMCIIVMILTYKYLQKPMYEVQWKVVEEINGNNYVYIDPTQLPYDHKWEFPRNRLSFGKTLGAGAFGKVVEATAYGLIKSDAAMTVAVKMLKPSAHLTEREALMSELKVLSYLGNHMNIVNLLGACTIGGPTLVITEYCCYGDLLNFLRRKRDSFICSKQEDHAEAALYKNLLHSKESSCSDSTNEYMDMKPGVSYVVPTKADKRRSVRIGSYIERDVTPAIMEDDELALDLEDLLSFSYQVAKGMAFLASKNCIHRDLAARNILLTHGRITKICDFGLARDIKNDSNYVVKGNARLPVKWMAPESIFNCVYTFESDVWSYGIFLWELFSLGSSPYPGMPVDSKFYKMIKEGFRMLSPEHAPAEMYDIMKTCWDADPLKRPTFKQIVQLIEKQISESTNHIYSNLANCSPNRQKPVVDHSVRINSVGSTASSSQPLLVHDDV
# [3] = test system: GIST T1 subcutaneous tumor xenograft; settings: GIST T1, SCID-beige mice, single i.v. dose 10 mg/kg
# Experimental: The anti-tumor activity of anti-cKIT ADCs was evaluated in several tumor xenograft models.
# [4] = HAMLX5343, Day 71, 50 mg/kg Daily x 6 days, intraperitoneally
molecule,measurement,setting,value
"Nc1ccn([C@@H]2O[C@H](CO)[C@@H](O)[C@@H]2O)c(=O)n1 [ARA-C, cytarabine, reference compound]",toxicity,[1],highly toxic
same,Mean change of body weight (from day 67),[2]; [4],2.3 ± 2.3 % ± SEM
same,Mean change of tumor volume,[2]; [4],−6.6 ± 2.1 % CD45 positive PBMC's ± SEM
same,Regression,[2]; [4],−52.5%
same,antitumor activity (leukemic burden),"[2]; HAMLX5343, intraperitoneally daily for 6 days",efficacious in three of the animals
same,bodyweight loss,"[2]; HAMLX5343, intraperitoneally daily for 6 days, three of six animals",> 20%
Cc1ccc(NC(=O)c2ccc(CN3CCN(C)CC3)cc2)cc1Nc1nccc(-c2cccnc2)n1 [Imatinib],cell proliferation,GIST cell lines,significantly reduce proliferation of GIST cell lines
MabCampath [reference compound],ADCC,Uke-1 cells,mediated ADCC killing of the target cells
B1,Affinity mouse cKIT,mouse cKIT ECD,Not reactive
same,Affinity to rat cKIT,rat cKIT ECD,Not reactive
B2,Affinity mouse cKIT,mouse cKIT ECD,Not reactive
same,Affinity to rat cKIT,rat cKIT ECD,Not reactive
B3,Affinity mouse cKIT,mouse cKIT ECD,Not reactive
same,Affinity to rat cKIT,rat cKIT ECD,Not reactive
B4,Affinity mouse cKIT,mouse cKIT ECD,Not reactive
same,Affinity to rat cKIT,rat cKIT ECD,Not reactive
B5,Affinity mouse cKIT,mouse cKIT ECD,Not reactive
same,Affinity to rat cKIT,rat cKIT ECD,Not reactive
same,blocking of SCF binding to cKIT,SCF binding to cKIT,partial blocking
same,antitumor activity (tumor volume),[3],Neither the control non-specific IgG1 ADCs nor the unconjugated 9P3 were efficacious
